Publication PMC5997990

Key:
[1] = biological target: T7 helicase-primase gp4A' (wild-type helicase) (bacteriophage T7) (UniProt P03692)
[2] = biological target: T7 helicase-primase gp4A' (wild-type helicase) (bacteriophage T7) (UniProt P03692); assay: single-molecule optical trapping (DNA unzipping force); helicase and DNAP in solution with a tethered forked dsDNA, 2 mM dTTP; after helicase unwound ~1000 bp under 9 pN the remaining DNA was unzipped mechanically at 2000 bp/s; a force-rise above the naked DNA baseline shows protein bound across the fork junction; 50 mM Tris-HCl pH 7.5, 40 mM NaCl, 10% glycerol; 25 ± 1 °C

T7 DNA polymerase (gp5/trx complex), exo- gp5 (D5A, D7A) with E. coli thioredoxin (from UniProt P00581 1-704; P0AA25 1-109)
replication re-initiation efficiency after collision with a stalled E. coli TEC, normalised against the TEC formation efficiency [1]: 15% | traces that passed a stalled co-directional E. coli TEC and went over to unwinding with leading-strand synthesis, 0.5 mM dNTP each, 5 pN [1]: 12% | peak of the force-rise [2]: 26 pN | percent of traces with a force-rise above the naked DNA baseline [2]: 75%
